Target: ligands present on the membranes of early apoptotic cells
Assay: flow cytometry on anti-CD95-treated Jurkat E6-1 cells, streptavidin-PE detection

percent of early apoptotic Jurkat E6-1 cells binding sCD163-biotin: > 50%
Substance: human soluble CD163, biotinylated (sCD163-biotin) (from UniProt Q86VB7 42-1045)
